*1 amine or outer side, *2 acyl side, *3 side chain or, on linkers, in order; H or OH if unused. Where no end group is shown, it is not given here. [ ]: non-standard residue; d: D form. KCme2 = N-dimethylated aminoethylcysteine, CN(C)CCSC[C@H](N[*:1])C(=O)[*:2]; Me2 = dimethyl group on the Lys side-chain amine
B1: p53KC382me2 peptide (recombinant, dimethyllysine analogue at 382) (peptide)
peptide: GHMSTSRHKCLMFKT
modifications: not fully specified (residue 10)
B2: p53R379GKC382me2 peptide (peptide)
peptide: GHMSTSGHKCLMFKT
modifications: not fully specified (residue 10)
B3: p53K381GKC382me2 peptide (peptide)
peptide: GHMSTSRHGCLMFKT
modifications: not fully specified (residue 10)
B4: p53KC382me2L383G peptide (peptide)
peptide: GHMSTSRHKCGMFKT
modifications: not fully specified (residue 10)
B5: p53KC382me2F385G peptide (peptide)
peptide: GHMSTSRHKCLMGKT
modifications: not fully specified (residue 10)
B6: p53H380GKC382me2 peptide (peptide)
peptide: GHMSTSRGKCLMFKT
modifications: not fully specified (residue 10)
B7: p53KC370me2 peptide (recombinant, dimethyllysine analogue at 370) (peptide)
peptide: GHMRAHSSHLCSKKGQST
modifications: not fully specified (residue 11)
B8: p53L369GKC370me2 peptide (peptide)
peptide: GHMRAHSSHGCSKKGQST
modifications: not fully specified (residue 11)
B9: p53KC370me2K372G peptide (peptide)
peptide: GHMRAHSSHLCSGKGQST
modifications: not fully specified (residue 11)
B10: p53H365GKC370me2 peptide (peptide)
peptide: GHMRAGSSHL[KCme2]SKKGQST
B11: p53H368GKC370me2 peptide (peptide)
peptide: GHMRAHSSGLCSKKGQST
modifications: not fully specified (residue 11)
B12: p53KC370me2K373G peptide (peptide)
peptide: GHMRAHSSHLCSKGGQST
modifications: not fully specified (residue 11)
B13: p53K370me2K382me2 peptide (residues S366-K386) (peptide, UniProt P04637 366-386, looked up)
peptide: SSHLKSKKGQSTSRHKKLMFK
modifications: dimethyllysine at 370; dimethyllysine at 382
B14: p53K382me2 peptide (residues S376-T387 of p53) (peptide, UniProt P04637 376-387, looked up)
peptide: STSRHKK(Me2)LMFKT
B15: p53K370me2 peptide (residues R363-T377 of p53) (peptide, UniProt P04637 363-377, looked up)
peptide: RAHSSHLK(Me2)SKKGQST

Each binder was assayed against T1, tandem Tudor domain (TTD) of human 53BP1 (human, UniProt Q12888 1484-1603) (assay: NMR titration).
T1 sequence (Q12888 1484-1603): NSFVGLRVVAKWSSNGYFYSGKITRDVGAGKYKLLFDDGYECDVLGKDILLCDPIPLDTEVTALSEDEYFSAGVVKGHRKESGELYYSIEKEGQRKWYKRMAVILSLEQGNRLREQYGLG

Binding result, binds:
B1
B2
B3
B4
B5
B6
B7
B8
B9
B10
B11
B12
B13
B14

These binders were tested against T1, tandem Tudor domain (TTD) of human 53BP1 (assay: solution NMR structure).

Binding result, binds:
B15

— article PMC4321732 (Structure (London, England : 1993), 2015)
